The values below come from patent US20200181248A1 (Chugai, published 2020).

The target of the experiment is T1, soluble form of human GPC3 (lacking the C-terminal hydrophobic region 564-580, Flag-tagged, heparan sulfate … (human, UniProt P51654 25-563, heparan sulfate modification (smear-like band of 50 to 300 kDa))).
T1 construct: also called soluble form of GPC3; purified soluble form of GPC3; not shown: Flag tag from vector pCXND2-Flag
Description: sandwich ELISA: the concentration varied is that of soluble GPC3 ('GPC3 hepa'); M6B1 coated as capture, biotin-labeled M18D4 as detection. (ELISA stands for enzyme-linked immunosorbent assay.)

T1 sequence (P51654 25-563, form in doubt): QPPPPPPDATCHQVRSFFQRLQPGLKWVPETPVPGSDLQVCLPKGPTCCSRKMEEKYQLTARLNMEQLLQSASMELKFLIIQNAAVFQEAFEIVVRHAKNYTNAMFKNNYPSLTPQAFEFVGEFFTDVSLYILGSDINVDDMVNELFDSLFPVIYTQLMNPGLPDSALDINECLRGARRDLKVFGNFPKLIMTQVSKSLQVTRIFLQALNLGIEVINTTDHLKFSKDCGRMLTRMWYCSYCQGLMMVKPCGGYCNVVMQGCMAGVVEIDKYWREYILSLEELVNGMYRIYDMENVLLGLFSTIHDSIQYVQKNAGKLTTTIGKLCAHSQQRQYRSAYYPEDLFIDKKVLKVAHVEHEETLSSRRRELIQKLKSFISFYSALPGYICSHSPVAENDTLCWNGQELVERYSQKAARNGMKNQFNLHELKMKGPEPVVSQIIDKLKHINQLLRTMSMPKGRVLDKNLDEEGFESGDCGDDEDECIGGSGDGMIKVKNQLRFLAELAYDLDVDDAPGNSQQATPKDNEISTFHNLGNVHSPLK

B1: M6B1 (antibody, V domains shown)
VH: EVQLVESGGDLVKPGGSLKLSCAASGFTFSSYAMSWVRQTPEKRLEWVAAINSNGGTTYYPDTMKDRFTISRDNAKNTLYLQMSSLRSEDSALYYCTRHNGGYENYGWFAYWGQGTLVTVSA
VL: DIQMTQSPSSLSASLGGKVTITCKASQDINKNIIWYQHKPGKGPRLLIWYTSTLQPGIPSRFSGSGSGRDYSFSISNLEPEDIATYYCLQYDNLPRTFGGGTKLEIK
B1: the EC50 (read off the curve) (as a rule, the concentration giving half of the maximal effect) was around 0.02 µg/mL.
